Test system: MS2 coat protein
Assay: apparent KD of MS2 coat protein; designed switch direction (-1 OFF switch, 1 ON switch): -1; higher = weaker reporter binding
Summary of the method: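 Each step of the titration lasted 0.8–1.5 h at the lowest concentration and 10–20 min at the highest. The protein, SNAP-549-labelled MS2 coat protein, went from 0.7 or 1.5 nM doubling to 3 µM over RNA switches transcribed on Illumina chips by stalled E. coli RNA polymerase. Normalised cluster fluorescence was curve-fitted, and the per-design median over clusters is given as apparent KD.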

[1] = Eterna round: R95, input ligand: FMN 200 uM
[2] = Eterna round: R95, input ligand: microRNA oligo, concentration not stated
[3] = Eterna round: R95, input ligand: none
[4] = input ligand: microRNA oligo, concentration not stated

“AAUAGUAAUAAGGAUAUCACUAGCUUCGGCUAGUGAGAAGGUAUUACAUGAGGAUCACCCAUGUGGUCAAUUAA [E6/4-A1] (Eterna round: R97, puzzle: Exclusion 6)” was tested. Which “apparent KD of MS2 coat protein” value (input ligand: FMN 200 uM) did it give?
Its value is 360 nM.

And the “apparent KD of MS2 coat protein” value (input ligand: none)?
Its value is 922 nM.

For “AAUAGUCGGUAGGAUAUCCACGGAUGACCGGCAGGAGAAGGGCCGACUUGAGGAUCACCCAAGUAUGGUCCAAC [Ortiqumate] (Eterna round: R97, puzzle: Exclusion 6)”, which “apparent KD of MS2 coat protein” value (input ligand: FMN 200 uM) is on record?
Its value is 25.1 nM.

What about the “apparent KD of MS2 coat protein” value (input ligand: none) of the same sequence?
Its value is 13.9 nM.

How did the “apparent KD of MS2 coat protein” value (input ligand: FMN 200 uM) turn out when “AAUAUCGUAGGAUAUUAAUACUCAGACAUGAGGAUCACCCAUGUUUGGUGGGUCGGAGAAUGAGAAGGGCGAUGAA [EX5 #15] (Eterna round: R97, puzzle: Exclusion 5)” was run?
The value was 86 nM.

And the “apparent KD of MS2 coat protein” value (input ligand: none)?
Its value is 54.7 nM.

With “AAUCCACAUGAGGAUCACCCAUGUGAGGAUAUGAUACUAUGUACUUCGGUACAUAGUAUCAGAAGGCACAUGAA [Ex1-3: 50] (puzzle: Exclusion 1)” as the sequence, how does the “apparent KD of MS2 coat protein” value [1] read?
Its value is 118 nM.

And the “apparent KD of MS2 coat protein” value [2]?
The value was 64.2 nM.

What about the “apparent KD of MS2 coat protein” value [3] of the same sequence?
Its value is 71.6 nM.

Which results are given for “AAUCCUCUGCAGGAUAUCACUGGAUGAACCAGCUGAGAAGGGCGCACAUGAGGAUCACCCAUGUUGUAAGUAGC [Eternabot (L1) Solution 80] (Eterna round: R97, puzzle: Exclusion 6)”?
apparent KD of MS2 coat protein (input ligand: FMN 200 uM): 132 nM; apparent KD of MS2 coat protein (input ligand: none): 51.7 nM

Which results are given for “AAUCUGCCGUAGGAUAUCUGAAGUUUAUAUAUAAGAGAAGGACGGACAUGAGGAUCACCCAUGUACGAUCCUGC [EX6 B.24] (Eterna round: R97, puzzle: Exclusion 6)”?
apparent KD of MS2 coat protein (input ligand: FMN 200 uM): 19.9 nM; apparent KD of MS2 coat protein (input ligand: none): 11.5 nM

For “AAUCUGUGAGGAUAUGGUGAGUAGUGCCUGAGCGCUGCUCACCAGAAGGCACAUGAGGAUCACCCAUGUAUGAC [Mat - Exclusion 4 - Mod of JL - D2] (puzzle: Exclusion 4)”, which “apparent KD of MS2 coat protein” value [2] is on record?
The value was 27.7 nM.

How did the “apparent KD of MS2 coat protein” value (input ligand: FMN 200 uM) turn out when “AAUGAGCGAGGAUAUGCAACUGUAUGACCUACGUGUGCCAGACAUGAGGAUCACCCAUGUAGAAGGUGCUUUCC [Israte] (Eterna round: R96, puzzle: Exclusion 2)” was run?
Its value is 59.9 nM.

What about the “apparent KD of MS2 coat protein” value [4] of the same sequence?
The value was 45.3 nM.

And the “apparent KD of MS2 coat protein” value (input ligand: none)?
Its value is 57 nM.

With “AAUGAGCGAGGAUAUGCAACUGUAUGACCUACGUGUGCCAGACAUGAGGAUCACCCAUGUAGAAGGUGCUUUCC [Israte] (puzzle: Exclusion 2)” as the sequence, how does the “apparent KD of MS2 coat protein” value [2] read?
The value was 45.4 nM.

What does the source list for “AAUGAUGAUGUGAGGAUAUACAUAGUUAGACCGUAGUAGAAGGCACAUGAGGAUCACCCAUGUAGAUGUUAGGU [JR_BME4_Sub003] (puzzle: Brourd's mod of Exclusion 4)”?
apparent KD of MS2 coat protein [1]: 21.5 nM; apparent KD of MS2 coat protein [2]: 12.9 nM; apparent KD of MS2 coat protein [3]: 14.4 nM

What does the source list for “AAUGAUUGACGAGGAUAUUGUGGUAGAUCACGACGAGAAGGCGUAUGUCACAUGAGGAUCACCCAUGUGAGCUUUGUGGAUAGA [Ex NG1 #74] (Eterna round: R96, puzzle: Exclusion NG 1)”?
apparent KD of MS2 coat protein (input ligand: FMN 200 uM): 27.1 nM; apparent KD of MS2 coat protein [4]: 16.1 nM; apparent KD of MS2 coat protein (input ligand: none): 20.7 nM

For “AAUGGCUGAGGAUAUACACUCACGUCUAAAAGGUUCAAAUGACAUGAGGAUCACCCAUGUAGAAGGCAGCCCGA [Regeor] (puzzle: Exclusion 2)”, which “apparent KD of MS2 coat protein” value [2] is on record?
The value was 98.4 nM.

What does the source list for “AAUGUGUGAGGAUAUUAAUUGCAAGCGAAUAGGCUUGUGAUUGAGAAGGCACAUGAGGAUCACCCAUGUUCCAA [JR_Ex4_Sub083] (Eterna round: R97, puzzle: Exclusion 4)”?
apparent KD of MS2 coat protein (input ligand: FMN 200 uM): 557 nM; apparent KD of MS2 coat protein (input ligand: none): 38.6 nM

With “AAUUAGUCAGGAUAUACAUGAGGAUCACCCAUGUAAACUUUUAGUUUAAUUUGAAUGUGUAGAAGGGACAUUUA [Ex3 #47] (Eterna round: R97, puzzle: Exclusion 3)” as the sequence, how does the “apparent KD of MS2 coat protein” value (input ligand: FMN 200 uM) read?
Its value is 18.9 nM.

And the “apparent KD of MS2 coat protein” value (input ligand: none)?
Its value is 22.2 nM.

With “AAUUAUUGAUGAGGAUAUUGUGGUGAAACACCACAAGAAGGCAUUAUACACAUGAGGAUCACCCAUGUGAGCCUGAUGCUUAUG [Ex NG1 #55] (Eterna round: R96, puzzle: Exclusion NG 1)” as the sequence, how does the “apparent KD of MS2 coat protein” value [4] read?
The value was 12.7 nM.

“AAUUAUUUAUGAGGAUAUUGUGGUGAAACACCACAAGAAGGCAUGAUACACAUGAGGAUCACCCAUGUGAGCCUGAUGCAUAUA [Ex NG1 #58] (Eterna round: R96, puzzle: Exclusion NG 1)” was tested. Which “apparent KD of MS2 coat protein” value [4] did it give?
The value was 13.5 nM.

Which “apparent KD of MS2 coat protein” value [2] does the source give for “AAUUUACAUGAGGAUCACCCAUGUGAGGAUAUGAUACUAUGUACUUCGGUACAUAGUAUCAGAAGGCAUGUGAA [Ex1-3: 92] (puzzle: Exclusion 1)” here?
Its value is 133 nM.

Which results are given for “AAUUUACAUGAGGAUCACCCAUGUGAGGAUAUGGUUUCGCUGGCCGUAGCCAGUGGAACCAGAAGGCGCGUGAU [Mat - Exclusion 1 - JL Mod - D28] (Eterna round: R97, puzzle: Exclusion 1)”?
apparent KD of MS2 coat protein (input ligand: FMN 200 uM): 195 nM; apparent KD of MS2 coat protein (input ligand: none): 84.3 nM

How did the “apparent KD of MS2 coat protein” value [1] turn out when “ACAAAGGGAGUCAGGAUAUCGGACGUAAGUCAAGACGAGAAGGGACAUGAGGAUCACCCAUGUCAGCGGUGAAA [Exclusion 4 S1] (puzzle: Brourd's mod of Exclusion 4)” was run?
Its value is 42.5 nM.

What about the “apparent KD of MS2 coat protein” value [2] of the same sequence?
Its value is 18.7 nM.

What about the “apparent KD of MS2 coat protein” value [3] of the same sequence?
The value was 17 nM.

Which results are given for “ACAAAGGUAGGAUAUCGGACUAUGGACAUGAGGAUCACCCAUGUGCGUCCAGUGUCCAACCGAGAAGGACCCAAAA [Beinge] (puzzle: Exclusion 5)”?
apparent KD of MS2 coat protein [1]: 83.2 nM; apparent KD of MS2 coat protein [2]: 86.1 nM; apparent KD of MS2 coat protein [3]: 91.6 nM

For “ACAAGAAUUUUGCUCGUAAAGUAGAAACGCGAGAGCGAGACAUGAGGAUCACCCAUGUAAAGGCAGUAGGUGGAGAU [JR_SV3TOV2_Sub027] (puzzle: Sensor v3, turn-off variant 2)”, which “apparent KD of MS2 coat protein” value [1] is on record?
The value was 49.3 nM.

What about the “apparent KD of MS2 coat protein” value [2] of the same sequence?
The value was 50.9 nM.

And the “apparent KD of MS2 coat protein” value [3]?
The value was 46.1 nM.

“ACAAGCAUUUAGUAAAUGGACAUGAGGAUCACCCAUGUGAGUCCGAAGAGAUAAGAUAUAUUGUCGGCUCGUCUUAU [AK-miRNA-r3-22] (Eterna round: R97, puzzle: Sensor, turn-off variant 1)” was tested. Which “apparent KD of MS2 coat protein” value (input ligand: FMN 200 uM) did it give?
Its value is 55.9 nM.

What about the “apparent KD of MS2 coat protein” value (input ligand: none) of the same sequence?
Its value is 94.8 nM.

For “ACAAGCUCUUUGCAACUUAGUUUUGUUGCUUCGUAGGUAACAUGAGGAUCACCCAUGUAAGAGUGAUGUCGUCUUAU [JR_SV3TOV2_Sub085] (puzzle: Sensor v3, turn-off variant 2)”, which “apparent KD of MS2 coat protein” value [1] is on record?
The value was 65.8 nM.

And the “apparent KD of MS2 coat protein” value [2]?
Its value is 52.7 nM.

What about the “apparent KD of MS2 coat protein” value [3] of the same sequence?
The value was 76.9 nM.

“ACAAGCUUAAUCAGUAAGAACAUGAGGAUCACCCAUGUAAAUGAAAGGACUAUUGGGUUAUUUAAAGCUCGUCUUAU [JR_STOV1_Sub014] (Eterna round: R97, puzzle: Sensor, turn-off variant 1)” was tested. Which “apparent KD of MS2 coat protein” value (input ligand: FMN 200 uM) did it give?
Its value is 52.1 nM.

And the “apparent KD of MS2 coat protein” value (input ligand: none)?
The value was 52.8 nM.

What does the source list for “ACAAGCUUAUUGCUCGGGUACAUGAGGAUCACCCAUGUUUGUGAUUAUAGAGAUUGUGUUGACGUGCGCUGCAGGUU [JR_SV3TOV1_Sub078] (puzzle: Sensor v3, turn-off variant 1)”?
apparent KD of MS2 coat protein [1]: 61.1 nM; apparent KD of MS2 coat protein [2]: 37.9 nM; apparent KD of MS2 coat protein [3]: 77 nM

Which results are given for “ACAAGCUUUUAGUUCGUCUUAUACACUCCUAAUAAGAAAACAUGAGGAUCACCCAUGUAAGAAAUAAGAACUCAUGU [Sesor Array 2 - Jieux - Sensor v3, turn-off variant 2] (Eterna round: R96, puzzle: Sensor v3, turn-off variant 2)”?
apparent KD of MS2 coat protein (input ligand: FMN 200 uM): 186 nM; apparent KD of MS2 coat protein [4]: 297 nM; apparent KD of MS2 coat protein (input ligand: none): 143 nM

Which results are given for “ACAAGCUUUUAGUUCGUCUUAUACACUCCUAAUAAGAAAACAUGAGGAUCACCCAUGUAAGAAAUAAGAACUCAUGU [Sesor Array 2 - Jieux - Sensor v3, turn-off variant 2] (puzzle: Sensor v3, turn-off variant 2)”?
apparent KD of MS2 coat protein [1]: 151 nM; apparent KD of MS2 coat protein [2]: 396 nM; apparent KD of MS2 coat protein [3]: 209 nM

With “ACAAGCUUUUGCUCGUCUUACAUGAGGAUCACCCAUGUCGGGAACAUGCAUACAUACAACAUAUAAACAGUAACAGA [high energy, high % A (36%)] (Eterna round: R97, puzzle: Sensor, turn-off variant 1)” as the sequence, how does the “apparent KD of MS2 coat protein” value (input ligand: FMN 200 uM) read?
Its value is 20.1 nM.

And the “apparent KD of MS2 coat protein” value (input ligand: none)?
Its value is 21.2 nM.

How did the “apparent KD of MS2 coat protein” value [1] turn out when “ACAAGCUUUUUGUUCGUCUUAUAAUAAUAAAUAAAGAUAACAUGAGGAUCACCCAUGUAACAAAGACGGACUCAUGU [Sesor Array 18 - Jieux - Sensor v3, turn-off variant 2] (puzzle: Sensor v3, turn-off variant 2)” was run?
Its value is 18.2 nM.

What about the “apparent KD of MS2 coat protein” value [2] of the same sequence?
Its value is 279 nM.

What about the “apparent KD of MS2 coat protein” value [3] of the same sequence?
The value was 16.3 nM.

For “ACAAGCUUUUUGUUCGUCUUAUAAUAAUAAAUAAAUAUAACAUGAGGAUCACCCAUGUUAAGAAGACAACCUCAUGU [Sesor Array 25 - Jieux - Sensor v3, turn-off variant 2] (puzzle: Sensor v3, turn-off variant 2)”, which “apparent KD of MS2 coat protein” value [1] is on record?
Its value is 157 nM.

What about the “apparent KD of MS2 coat protein” value [2] of the same sequence?
The value was 606 nM.

And the “apparent KD of MS2 coat protein” value [3]?
Its value is 305 nM.

Which “apparent KD of MS2 coat protein” value [1] does the source give for “ACAAGUUUUUUGUUUUUUAACAUGAGGAUCACCCAUGUAUUUUUAGAGGAUGUGGGAAUAAGAGCUCUUUGUCUUAU [JR_SV3TOV1_Sub097] (puzzle: Sensor v3, turn-off variant 1)” here?
Its value is 38.6 nM.

What about the “apparent KD of MS2 coat protein” value [2] of the same sequence?
The value was 90.3 nM.

What about the “apparent KD of MS2 coat protein” value [3] of the same sequence?
The value was 41.2 nM.

Reference: the supplement of paper PMC9170038
